# Test results: the DeepSol protein solubility set
# Test: soluble on expression in E. coli; label from the status in PepcDB or PDB records
row,Sequence,soluble on expression in E. coli
1,MSDVTVVNCPTCGKPVVWGEISPFRPFCSKRCQLIDLGEWAAEEKRIASSGDQSDSDDWSEER,not soluble
2,MSEAETGEPNGFRSCYDKLRKAVGNIPMDASKSTKLHNLSSRKISEILPNLYLSGRTVSQNSELLKEKNITTVINVSDREVVNYKNNQKFIKNYRFYAMSDTASAKFDGIIEEAVRIIHDSRSKEEGVLVHCFLGVSRSATLVAFYLISALSINWRDAVDFIHHRRFSANPNFGFLHQLKVYSTTKAKEFRNQLISERCLRMRESDKDIIKKYLPLAVFEL,not soluble
3,MSEEAQPITLEAFAEAIRELPLSAVYAKVSEIRNSIAHLRRSNSELKAFIDETCESESDKRELEGYIAENEGVIATMNDRIGLLKTEIESRGERWIEEEIEANIKVDGDEVSTSQPIINGTAGDERPRAHEDATRRPEDRQTNEEEGVYL,not soluble
4,MSEEVGAKRWYAVHTYSGYENKVKKNLEKRVESMNMTEQIFRVVIPEEEETQVKDGKAKTTVKKTFPGYVLVELIMTDESWYVVRNTPGVTGFVGSAGAGSKPNPLLPEEVRFILKQMGLKEKTIDVELEVGEQVRIKSGPFANQVGEVQEIETDKFKLTVLVDMFGRETPVEVEFDQIEKL,not soluble
5,MSEFNEKPEKLIVDGLRLDGRKFDELRPIKIEASVLKRADGSCYLEMGKNKVIAAVFGPREVHPRHLQDPSKAIIRYRYNMAPFSVEERKRPGPDRRSIEISKVSKEAFEAVIMKELFPRSAIDIFVEVLQADAGSRTACLNAASVALVDAGVPMKGMITSVAVGKADGQLVLDPMKEEDNFGEADMPFAFLIRNGKIESIALLQMDGRMTRDEVKQAIELAKKGALQIYEMQREAILRRYIEVGEEMDEITEGGEDA,soluble
6,MSEGWNIAVLGATGAMGEALLETLAERQFPVGEIYALARNESAGEQLRFGGKTITVQDAAEFDWTQAQLAFFVAGKEATAAWVEEATNSGCLVIDSSGLFALEPDVPLVVPEVNPFVLTDYRNRNVIAVPDSLTSQLLAALKPLIDQGGLSRISVTSLISASAQGKKAVDALAGQSAKLLNGIPIDEEDFFGRQLAFNMLPLLPDSEGSVREERRIVDEVRKILQDEGLMISASVVQAPVFYGHAQMVNFEALRPLAAEEARDAFAQGEDIVLSEENEFPTQVGDASGTPHLSVGCVRNDYGMPEQVQFWSVADNVRFGGALMAVKIAEKLVQEYLY,not soluble
7,MSEKPAESAAAVADSATTTAPQSGKPETALPALIDTQATAETRALYRNLAKLRYKHLLFGHEDSLAYGVHWEGDMDRSDVRDVTGANPAVYGWELGGLELGHTANLDAVNFEKMQHWIKAGYSRGGVITISWHVFNPVSGGNSWDKTPAVHELIPGGARHATLKAYLDTFVAFNEGLADVDAQGNKHYPPIIFRPWHEHNGDWFWWGKGHASEQDYIALWRFTVHYLRDEKKLRNLIYAYSPDRSRIDMANFEAGYLYGYPGDAYVDIIGLDNYWDVGHEANTASADEQKAALTASLKQLVQIARSKGKIAALTETGNNRLTIDNFWTERLLGPISADADASEIAYVMVWRNANLAREKSEQFFAPFPGQATADDFKRFYQSEVVLFEDELPPLYR,soluble
8,MSELFSERIPPQSIEAEQAVLGAVFLDPAALVPASEILIPEDFYRAAHQKIFHAMLRVADRGEPVDLVTVTAELAASEQLEEIGGVSYLSELADAVPTAANVEYYARIVEEKSVLRRLIRTATSIAQDGYTREDEIDVLLDEADRKIMEVSQRKHSGAFKNIKDILVQTYDNIEMLHNRDGEITGIPTGFTELDRMTSGFQRSDLIIVAARPSVGKTAFALNIAQNVATKTNENVAIFSLEMSAQQLVMRMLCAEGNINAQNLRTGKLTPEDWGKLTMAMGSLSNAGIYIDDTPSIRVSDIRAKCRRLKQESGLGMIVIDYLQLIQGSGRSKENRQQEVSEISRSLKALARELEVPVIALSQLSRSVEQRQDKRPMMSDIRESGSIEQDADIVAFLYRDDYYNKDSENKNIIEIIIAKQRNGPVGTVQLAFIKEYNKFVNLERRFDEAQIPPGA,soluble
9,MSELIRVPDIGNGEGEVIELLVKPGDKVEADQSLLTLESDKASMEIPSPKAGVVKSIKAKVGDTLKEGDEILELEVEGGEQPAEAKAEAAPAQPEAPKAEAPAPAPSESKPAAPAAASVQDIKVPDIGSAGKANVIEVMVKAGDTVEADQSLITLESDKASMEIPSPASGVVESVSIKVGDEVGTGDLILKLKVEGAA,not soluble
10,MSELQNPKPSSLSRDAFIATYADIYEHSPWVAEQAFNQDAGPELDQLDTLHARLSDILLNATHAQQLALINAHPDLAGKAAVKGELTQASTDEQAGAGIHLCTPDEFQRFTELNGAYKARFGFPFIMAVKGSDRHKILAAFEQRIHHSPEAEFACALAEINKIALFRLQALHASQAAAALEHHHHHH,soluble
11,MSELSDEEISLQALYDPSKKVIGDIEDGIFSTPELQPRIKTGIDNLQLVTKLVNQMRLFSSNEQIEDVPTNSLPYLLVPCFLGILHQNLMTEPGLKLDELRKSKIYMRNFLDRLRDLCLITTRLPWEDEDTEEQNLKEKPKLAVEEIRRLKLERHKKKQELKMAELRIQKQLEAVSIDEQNLRELYITQLLFWSERCYEELQAIDDELPLLKMMAERASHPHRHPAPPPATKTVPTLKPFIITRDAQQKQVFGLGYPGIPAMSVDEWYHQKFGHNPQNAPQSSAPAGAEAQESEEEVDDDEARAKAMRWDEYKDDHRRGWGNMHNKG,soluble
12,MSELYVAECNAAKARLEVETECRRIIADNYEKVLERAKEYSKKLEAPILAKICEVGYFCGAHVVRTNQVTMEMGANYYGECSIHTAEKILDRRVSEMRRQREEGLDSIRMLDDKIKFAQDNFSSVSIDGGPIEIVEKYDEEMEKLFYQNRKNKKMSQNDEQNEKIIEKNKLNGDQDHNDVMNRLEELEKLEQDNDEMEEAPIPKPFEVSNEDLQDLGKLEEVEEVEQDPTDKKLRFGMNERLLAQPGVTQKEMERLLDFLDTCDEESSDEEYDEDEEEGDDDEENLNNSVEELDSDDYASDDNIEKSNNSDQQLKSKKIETQVIKVEEIVEETVTKTTVKRKKSGVRFAQQLENVKTFHQTDTVEIKEEDSVIETKSILRSTEPTPVDRSALEPEQKELAAMSTMTFPGEIVEKNPYECEPSTSRDPAPVITEKKVSKFRASRHRN,not soluble
13,MSEMLNHVASCRLPTEWGVFTMHGFEEANGQEHVALTVGNFSDGNPVLTRIHSECLTGDALFSRKCDCGPQLEAAMRAVQTEGRGIIVYLRQEGRGIGLINKIRAYHLQDQGMDTVEANLALGLPVDARDFRLAQSIYEYLGIRSVKLLTNNPEKIQTLKDAGINVVERIPLHVGENLENKRYLQTKADKLGHLMSE,not soluble
14,MSEPILKVENLKKYFPVRRGFLSALRGEPQKFVKAVDGVSFEIYKQQVFALVGESGCGKTTTGKLIVKLLEPTDGKIYLEGQDVTELRTKEEIKAYRRKVQMIFQDPFSSMNPRFRIYDVLEEPLLIHGIGETRAEREELIYKALEMVKITPPEEYVGRFPHMLSGGQRQRVAIARALILNPTFVVADEPVSMLDVSIRAEILELMKELKEKMGVTYLYITHDLSTARYFADWIAVMYLGRIVEMGPAKEIIDNPLHPYTRALLAAVPEPIPERKDVIKELPIKGEVPSAVNIPSGCRFHPRCIYFKKGLCDVKQPQLIEYSHNHWVECHRVGEI,soluble
15,MSEQSFSNANKGSETLNGSAASFVSHKRFYDDTNFPKGFKRSGDFTSKEAELLELHGHAMKNLAEGKTLPVTADEAQFVEVIKGNIAPSSLLEHIWLKYRKLARGKPFYAVVGTVHLPATKPEVEVEPEAAFDVDVEIEDDVQDEAEPEDKA,soluble
16,MSERLSITPLGPYIGAQISGADLTRPLSDNQFEQLYHAVLRHQVVFLRDQAITPQQQRALAQRFGELHIHPVYPHAEGVDEIIVLDTHNDNPPDNDNWHTDVTFIETPPAGAILAAKELPSTGGDTLWTSGIAAYEALSVPFRQLLSGLRAEHDFRKSFPEYKYRKTEEEHQRWREAVAKNPPLLHPVVRTHPVSGKQALFVNEGFTTRIVDVSEKESEALLSFLFAHITKPEFQVRWRWQPNDIAIWDNRVTQHYANADYLPQRRIMHRATILGDKPFYRAGLEHHHHHH,soluble
17,MSESFAELFEESLKSLDMQPGAIITGIVVDIDGDWVTVHAGLKSEGVIPVEQFYNEQGELTIKVGDEVHVALDAVEDGFGETKLSREKAKRAESWIVLEAAFAADEVVKGVINGKVKGGFTVDVNGIRAFLPGSLVDVRPVRDTTHLEGKELEFKVIKLDQKRNNVVVSRRSVLEAENSAEREALLESLQEGQQVKGIVKNLTDYGAFVDLGGVDGLLHITDMAWKRIKHPSEIVNVGDEIDVKVLKFDRERNRVSLGLKQLGEDPWVAIKARYPEGTRVMARVTNLTDYGCFAELEEGVEGLVHVSEMDWTNKNIHPSKVVQVGDEVEVQVLDIDEERRRISLGIKQCKSNPWEDFSSQFNKGDRISGTIKSITDFGIFIGLDGGIDGLVHLSDISWNEVGEEAVRRFKKGDELETVILSVDPERERISLGIKQLEDDPFSNYASLHEKGSIVRGTVKEVDAKGAVISLGDDIEGILKASEISRDRVEDARNVLKEGEEVEAKIISIDRKSRVISLSVKSKDVDDEKDAMKELRKQEVESAGPTTIGDLIRAQMENQGLEHHHHHH,soluble
18,MSEVKYKRVILKLSGEALAGEKGFGINPPVIKTVAEELKDVYDMGVQIAIVVGGGNMWRGEAGAQMGMERAQADYIGMLATIMNALALQDNLESIGVPTRVQTSIEMRQIAEPYIRRKAMRHLEKRRIVIFAGGTGSPYFSTDTTAALRAAEINADAILMAKNGVDGVYSADPNKDASAVKFDTLTHLDIINKGLQVMDTTASSLSMDNDIPVVVFNLNEPGNIRKVVAGEHIGTTVRGKLEHHHHHH,soluble
19,MSEYLAAADYLPHSAPMVLVDEVIHVDDEHAHCRVAVSREGILAPFLNAQGHLPAWFGIEIIAQTIGVWSGWHGRQSLGLQEKPRPGMLLGGRGYHCQQAIFPAGSLLDVTVMLVMRDEKIGSFEGEIAIDGEKYASGRLNTYQPDDRELNILLEQGKPL,not soluble
20,MSFDGFFLHHLTNELKENLLYGRIQKVNQPFERELVLTIRNHRKNYKLLLSAHPVFGRVQITQADFQNPQVPNTFTMIMRKYLQGAVIEQLEQIDNDRIIEIKVSNKNEIGDAIQATLIIEIMGKHSNIILVDRAENKIIESIKHVGFSQNSYRTILPGSTYIEPPKTAAVNPFTITDVPLFEILQTQELTVKSLQQHFQGLGRDTAKELAELLTTDKLKRFREFFARPTQANLTTASFAPVLFSDSHATFETLSDMLDHFYQDKAERDRINQQASDLIHRVQTELDKNRNKLSKQEAELLATENAELFRQKGELLTTYLSLVPNNQDSVILDNYYTGEKIEIALDKALTPNQNAQRYFKKYQKLKEAVKHLSGLIADTKQSITYFESVDYNLSQASIDDIEDIREELYQAGFLKSRQRDKRHKRKKPEQYLASDGTTILMVGRNNLQNEELTFKMAKKGELWFHAKDIPGSHVIIKDNLDPSDEVKTDAAELAAYYSKARLSNLVQVDMIEAKKLHKPSGAKPGFVTYTGQKTLRVTPDQAKILSMKLS,not soluble
21,MSFPLIFERSRKGRRGLKLVKAVPKAEDLIPKEHLREVPPRLPEVDELTLVRHYTGLSRRQVGVDTTFYPLGSCTMKYNPKLHEEAARLFADLHPYQDPRTAQGALRLMWELGEYLKALTGMDAITLEPAAGAHGELTGILIIRAYHEDRGEGRTRRVVLVPDSAHGSNPATASMAGYQVREIPSGPEGEVDLEALKRELGPHVAALMLTNPNTLGLFERRILEISRLCKEAGVQLYYDGANLNAIMGWARPGDMGFDVVHLNLHKTFTVPHGGGGPGSGPVGVKAHLAPYLPVPLVERGEEGFYLDFDRPKSIGRVRSFYGNFLALVRAWAYIRTLGLEGLKKAAALAVLNARYLKELLKEKGYRVPYDGPSMHEFVAQPPEGFRALDLAKGLLELGFHPPTVYFPLIVKEALMVEPTETEAKETLEAFAEAMGALLKKPKEWLENAPYSTPVRRLDELRANKHPKLTYFDEG,soluble
